Test: Parallel Artificial Membrane Permeability Assay (PAMPA)
Format: in vitro ADME
Conditions: for Papp: read-out: Pe × 10-6 (cm/s), effective permeability; for permeability compared to norbuprenorphine-Leu-enkephalin: result in words
[1] = 200 μM, pH 7.4, 20% 1-propanol cosolvent, 4 h
[2] = 200 μM, pH 7.4, 20% 1-propanol cosolvent, 4 h, room temperature

| Compound | % PAMPA Transport after 4h [1] [%] | %Membrane retention [2] [%] | Papp [2] [×10⁻⁶ cm/s] | permeability compared to norbuprenorphine-Leu-enkephalin | Pe × 10-6 (cm/s), effective permeability [2] |
| --- | --- | --- | --- | --- | --- |
| CO[C@]12CC[C@@]3(C/C1=C(/C)C(C)(C)C)[C@H]1Cc4ccc(O)c5c4[C@@]3(CCN1C(=O)[C@H](CC(C)C)NC(=O)[C@H](Cc1ccccc1)NC(=O)CNC(=O)CNC(=O)[C@@H](N)Cc1ccc(O)cc1)[C@H]2O5 [Compound 17] | 6.8 | 10.3 | 3.46 | – | – |
| CO[C@]12CC[C@@]3(CC1=C(C)C(C)(C)C)[C@H]1Cc4ccc(O)c5c4[C@@]3(CCN1C(=O)CCC(=O)N[C@@H](Cc1ccc(O)cc1)C(=O)NCC(=O)NCC(=O)N[C@@H](Cc1ccccc1)C(=O)N[C@@H](CC(C)C)C(=O)O)[C@H]2O5 [Compound 23] | 1.2 | 0 | 0.63 | lower permeability | – |
| CSCC[C@H](NC(=O)[C@H](Cc1ccccc1)NC(=O)CNC(=O)CNC(=O)[C@@H](N)Cc1ccc(O)cc1)C(=O)O [Standard Met-enkephalin, Met-enkephalin, reference compound] | 0.2 | 0 | 0.09 | – | – |
| CO[C@]12CC[C@@]3(C/C1=C(\C)C(C)(C)C)[C@H]1Cc4ccc(O)c5c4[C@@]3(CCN1C(=O)[C@H](CC(C)C)NC(=O)[C@H](Cc1ccccc1)NC(=O)CNC(=O)CNC(=O)[C@@H](N)Cc1ccc(O)cc1)[C@H]2O5 [Compound 18] | 4.3 | 30.9 | 2.13 | – | – |
| CC(C)NCC(O)COc1cccc2ccccc12 (centres unmarked) [Propanolol, reference compound] | 9.9 | 21.8 | – | – | 5.23 × 10-6 cm/s |
| COc1ccc2c3c1O[C@@H]1[C@]34CCN(C(=O)[C@H](CCSC)NC(=O)[C@H](Cc3ccccc3)NC(=O)CNC(=O)CNC(=O)[C@@H](N)Cc3ccc(O)cc3)[C@H](C2)[C@]42CC[C@@]1(OC)/C(=C(\C)C(C)(C)C)C2 [Compound 14] | 1.6 | 0 | 0.77 | – | – |
| CC(C)C[C@H](NC(=O)[C@H](Cc1ccccc1)NC(=O)CNC(=O)CNC(=O)[C@@H](N)Cc1ccc(O)cc1)C(=O)O [Standard Leu-enkephalin, Leu-enkephalin, reference compound] | 0.8 | 0 | 0.38 | – | – |
| CO[C@]12CC[C@@]3(CC1=C(C)C(C)(C)C)[C@H]1Cc4ccc(O)c5c4[C@@]3(CCN1C(=O)c1ccccc1C(=O)N[C@@H](Cc1ccc(O)cc1)C(=O)NCC(=O)NCC(=O)N[C@@H](Cc1ccccc1)C(=O)N[C@@H](CC(C)C)C(=O)O)[C@H]2O5 [Compound 24] | 1.9 | 0 | 0.92 | lower permeability | – |
| COc1ccc2c3c1O[C@@H]1[C@]34CCN(C(=O)[C@H](CCSC)NC(=O)[C@H](Cc3ccccc3)NC(=O)CNC(=O)CNC(=O)[C@@H](N)Cc3ccc(O)cc3)[C@H](C2)[C@]42CC[C@@]1(OC)/C(=C(/C)C(C)(C)C)C2 [Compound 15] | 2.9 | 0 | 1.42 | – | – |

From publication PMC6934973 (Iranian Journal of Pharmaceutical Research : IJPR, 2019)
